Experimental data reported in patent publication US20230414781A1 (BLISS BIOPHARMACEUTICAL HANGZHOU, published 2023).

Legend:
[1] = target: T1, B7-H3 on B7-H3-expressing cancer cells (UniProt Q5ZPR3 29-534, limits assumed); assay: FACS on BT-474 (breast) cells
T1 construct: whole, on cells; Endogenous expression on tumour cell lines; also called B7-H3 expressing cells; CD276
T1 sequence (looked up): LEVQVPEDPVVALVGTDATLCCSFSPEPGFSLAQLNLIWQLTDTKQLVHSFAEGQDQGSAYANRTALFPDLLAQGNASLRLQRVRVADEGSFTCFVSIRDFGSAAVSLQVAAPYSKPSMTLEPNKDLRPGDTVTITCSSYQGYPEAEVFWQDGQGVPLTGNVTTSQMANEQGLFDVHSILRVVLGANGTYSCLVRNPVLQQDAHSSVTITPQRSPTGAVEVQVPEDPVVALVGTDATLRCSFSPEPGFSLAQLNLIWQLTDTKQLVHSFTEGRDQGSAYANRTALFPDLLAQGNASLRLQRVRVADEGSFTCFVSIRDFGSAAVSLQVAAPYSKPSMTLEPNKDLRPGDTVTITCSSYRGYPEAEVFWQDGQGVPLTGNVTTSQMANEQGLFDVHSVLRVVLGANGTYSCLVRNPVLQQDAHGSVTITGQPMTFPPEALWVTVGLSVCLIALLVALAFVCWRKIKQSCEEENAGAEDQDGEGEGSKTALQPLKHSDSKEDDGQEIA
Procedure: (§1) Screening for B7-H3-expressing cells were performed using FACS with 27B4H4L3 antibody and MFI of 27B4H4L3 to those cells shown in Table 2. FACS assay was also used to exam and compare the binding capabilities of the 27B4H4L3 antibody, BH73 antibody, 27B4H4L3-MMAE and BH73-Eribulin to B7-H3-expressing cells. To perform the assay, target cells and samples were incubated at 4° C. for 1 h. After wash, samples and secondary antibody (goat pAb to human IgG (FITC) (Abcam, ab97224)) were incubated. FACS was performed on […] (BD, Accuri C6 Plus) and mean fluorescence intensity (MFI) was reported. Three cell lines (U87MG, BT-474 and HT-29) representing B7-H3 high- and low-expressing cells were used to compare binding capacities of different antibody constructs and ADCs.

[2] = target: T1, B7-H3 on B7-H3-expressing cancer cells; assay: FACS on HT-29 (colon) cells
Procedure: as §1

[3] = target: T1, B7-H3 on B7-H3-expressing cancer cells; assay: FACS on U87 (glioma) cells
Procedure: as §1

B1: 27B4H4L3 antibody (antibody, human IgG1, kappa)
heavy: EVQLVQSGAEVKKPGESLKISCKASGYTFTTYWIGWVRQMPGKGLEWMGIIYPGDGGSRYSPSFQGQVTISADKSISTAYLQWSSLKASDTAMYYCARGGNYISFPMYYWGQGTLVTVSSASTKGPSVFPLAPSSKSTSGGTAALGCLVKDYFPEPVTVSWNSGALTSGVHTFPAVLQSSGLYSLSSVVTVPSSSLGTQTYICNVNHKPSNTKVDKRVEPKSCDKTHTCPPCPAPELVGGPSVFLLPPKPKDTLMISRTPEVTCVVVDVSHEDPEVKFNWYVDGVEVHNAKTKPPEEQYNSTLRVVSVLTVLHQDWLNGKEYKCKVSNKALPAPIEKTISKAKGQPREPQVYTLPPSREEMTKNQVSLTCLVKGFYPSDIAVEWESNGQPENNYKTTPLVLDSDGSFFLYSKLTVDKSRWQQGNVFSCSVMHEALHNHYTQKSLSLSPGK
light: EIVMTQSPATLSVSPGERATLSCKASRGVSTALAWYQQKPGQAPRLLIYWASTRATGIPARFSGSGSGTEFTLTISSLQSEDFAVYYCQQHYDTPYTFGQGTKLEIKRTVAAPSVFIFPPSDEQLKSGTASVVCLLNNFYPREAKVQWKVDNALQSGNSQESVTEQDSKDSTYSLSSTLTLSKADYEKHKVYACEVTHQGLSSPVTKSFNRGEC
notes: also called 27B4H43L3
- MFI [1]: 126000 MFI
- MFI [2]: 69500 MFI
- MFI [3]: 314000 MFI

B2: 27B4H4L3-MMAE (antibody, human IgG1, kappa)
heavy: B1 heavy
light: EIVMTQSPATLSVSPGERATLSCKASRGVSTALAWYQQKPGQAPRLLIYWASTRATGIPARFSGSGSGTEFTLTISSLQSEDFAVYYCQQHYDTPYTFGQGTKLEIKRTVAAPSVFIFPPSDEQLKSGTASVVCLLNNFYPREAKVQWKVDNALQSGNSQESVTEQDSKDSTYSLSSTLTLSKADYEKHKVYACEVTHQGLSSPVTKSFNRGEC
modifications: may carry MC-Val-Cit-PAB-MMAE on an inter-chain disulfide cysteine; positions not given; MC-Val-Cit-PAB-MMAE drug-linker on cysteines of partially reduced inter-chain disulfide bonds; main peaks DAR2, DAR4, DAR6, minor DAR0 and DAR8; positions not given
notes: a mixture of DAR species; also called ADC made of 27B4H4L3 antibody
- MFI [1]: 126000 MFI
- MFI [2]: 65300 MFI
- MFI [3]: 290000 MFI
